Biological target: T1, MdMYB1-HIS (Malus domestica, UniProt M1UZJ0 1-243)
T1 sequence: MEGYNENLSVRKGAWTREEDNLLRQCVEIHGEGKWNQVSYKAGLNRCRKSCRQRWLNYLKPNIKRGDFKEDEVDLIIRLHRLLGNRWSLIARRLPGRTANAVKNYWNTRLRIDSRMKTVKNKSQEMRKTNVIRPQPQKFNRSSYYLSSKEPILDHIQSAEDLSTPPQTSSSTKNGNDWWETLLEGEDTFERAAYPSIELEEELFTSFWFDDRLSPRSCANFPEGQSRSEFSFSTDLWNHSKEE
Experiment: EMSA; Proteins and biotin probes mixed in binding buffer for 25 min, acrylamide gel; buffer, salt, pH and temperature not stated
Conditions: protein: recombinant; tags: His (pET32a); label: biotin; blunt

B1: MdDFR-Probe (dsDNA)
DNA 1: CGTGCGTCAACCGTTAGGAAAGCACG
DNA 2: CGTGCTTTCCTAACGGTTGACGCACG
Does B1 bind?
Result: binds

B2: MdUF3GT-Probe (dsDNA)
DNA 1: ACCTTCCCGTCAGTTATTGCAGGTGG
DNA 2: CCACCTGCAATAACTGACGGGAAGGT
Does B2 bind?
Result: binds

Source: article PMC7475178, “Dynamic regulation of anthocyanin biosynthesis at different light intensities by the BT2-TCP46-MYB1 module in apple”
